IC50 of inhibition of the current, whole-cell patch clamp, dose–response curve and IC50 of inhibition of the peak current, whole-cell patch clamp, dose–response curve data for two substances are collected here from paper PMC6215091.

Targets include NaV1.5 (UniProt Q14524); NaV1.4 (UniProt P15390); NaV1.6 (UniProt Q9WTU3); NaV1.7 (UniProt Q15858); NaV1.3 (UniProt P08104); NaV1.2 (UniProt P04775).
Test [1] concerns the target NaChBac/F108A (Bacillus halodurans).
Test [2] deals with NaChBac (Bacillus halodurans).
The target of test [3] is NaChBac/G105A (Bacillus halodurans).
Test [4] deals with NaChBac V109A (Bacillus halodurans).
The target in test [5] is NaChBac Q107A (Bacillus halodurans).
The target of test [6] is NaChBac F103A (Bacillus halodurans).
The target of test [7] is NaChBac (Bacillus halodurans). This is another data set of the same source.

Read-outs that look alike come from different tables or passages of the source.

Chain of UniProt P04775 (P04775 whole entry): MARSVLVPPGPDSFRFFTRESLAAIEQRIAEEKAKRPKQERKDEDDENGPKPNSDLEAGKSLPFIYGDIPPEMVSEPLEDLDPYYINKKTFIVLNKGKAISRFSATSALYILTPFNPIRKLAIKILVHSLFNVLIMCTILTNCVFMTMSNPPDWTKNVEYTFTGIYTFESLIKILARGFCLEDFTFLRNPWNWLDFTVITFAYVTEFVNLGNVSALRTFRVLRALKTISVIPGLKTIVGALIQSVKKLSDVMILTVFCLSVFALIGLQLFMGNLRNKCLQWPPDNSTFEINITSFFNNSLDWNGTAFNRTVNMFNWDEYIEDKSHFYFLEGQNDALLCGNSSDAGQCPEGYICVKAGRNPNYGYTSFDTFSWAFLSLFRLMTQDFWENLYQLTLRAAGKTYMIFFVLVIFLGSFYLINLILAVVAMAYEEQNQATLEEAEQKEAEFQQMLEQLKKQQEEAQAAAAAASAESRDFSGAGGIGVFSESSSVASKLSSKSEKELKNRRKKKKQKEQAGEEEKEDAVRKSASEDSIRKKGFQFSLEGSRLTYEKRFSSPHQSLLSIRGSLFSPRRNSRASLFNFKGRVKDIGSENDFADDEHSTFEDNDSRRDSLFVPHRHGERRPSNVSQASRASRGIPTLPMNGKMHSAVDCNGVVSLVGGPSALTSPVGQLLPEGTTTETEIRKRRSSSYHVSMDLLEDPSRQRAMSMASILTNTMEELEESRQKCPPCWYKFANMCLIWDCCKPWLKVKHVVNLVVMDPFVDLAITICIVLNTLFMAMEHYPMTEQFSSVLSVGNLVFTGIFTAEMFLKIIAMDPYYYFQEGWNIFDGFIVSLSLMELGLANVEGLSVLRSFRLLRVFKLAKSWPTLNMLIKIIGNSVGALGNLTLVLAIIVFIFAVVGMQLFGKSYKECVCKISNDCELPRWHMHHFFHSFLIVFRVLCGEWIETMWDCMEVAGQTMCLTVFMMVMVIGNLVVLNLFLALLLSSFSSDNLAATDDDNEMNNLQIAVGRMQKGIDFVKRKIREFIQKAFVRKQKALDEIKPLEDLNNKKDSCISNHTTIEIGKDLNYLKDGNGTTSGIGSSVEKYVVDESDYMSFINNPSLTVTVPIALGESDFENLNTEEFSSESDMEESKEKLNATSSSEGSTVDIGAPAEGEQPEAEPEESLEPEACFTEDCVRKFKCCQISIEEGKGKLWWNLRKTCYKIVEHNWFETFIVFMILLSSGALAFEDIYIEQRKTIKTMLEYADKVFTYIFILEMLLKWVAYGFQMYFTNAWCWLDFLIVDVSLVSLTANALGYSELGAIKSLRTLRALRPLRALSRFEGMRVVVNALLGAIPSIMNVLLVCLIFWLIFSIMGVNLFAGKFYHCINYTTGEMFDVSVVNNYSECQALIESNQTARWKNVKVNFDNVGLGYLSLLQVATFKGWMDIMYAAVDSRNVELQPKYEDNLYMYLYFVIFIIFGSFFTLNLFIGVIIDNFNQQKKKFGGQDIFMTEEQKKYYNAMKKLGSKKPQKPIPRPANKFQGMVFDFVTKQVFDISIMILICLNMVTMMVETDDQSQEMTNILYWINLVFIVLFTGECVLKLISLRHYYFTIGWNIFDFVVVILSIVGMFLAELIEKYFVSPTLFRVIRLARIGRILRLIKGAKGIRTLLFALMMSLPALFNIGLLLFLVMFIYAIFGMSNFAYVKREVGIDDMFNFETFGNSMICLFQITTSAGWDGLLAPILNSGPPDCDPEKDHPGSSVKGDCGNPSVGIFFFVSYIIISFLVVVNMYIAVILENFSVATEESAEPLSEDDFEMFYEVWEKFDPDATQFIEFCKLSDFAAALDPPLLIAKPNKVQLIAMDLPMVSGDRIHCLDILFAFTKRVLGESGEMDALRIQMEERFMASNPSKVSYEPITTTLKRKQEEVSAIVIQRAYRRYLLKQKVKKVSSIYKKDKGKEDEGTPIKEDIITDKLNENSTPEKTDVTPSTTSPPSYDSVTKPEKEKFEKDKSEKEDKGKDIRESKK
Chain of UniProt Q9WTU3 (Q9WTU3 whole entry): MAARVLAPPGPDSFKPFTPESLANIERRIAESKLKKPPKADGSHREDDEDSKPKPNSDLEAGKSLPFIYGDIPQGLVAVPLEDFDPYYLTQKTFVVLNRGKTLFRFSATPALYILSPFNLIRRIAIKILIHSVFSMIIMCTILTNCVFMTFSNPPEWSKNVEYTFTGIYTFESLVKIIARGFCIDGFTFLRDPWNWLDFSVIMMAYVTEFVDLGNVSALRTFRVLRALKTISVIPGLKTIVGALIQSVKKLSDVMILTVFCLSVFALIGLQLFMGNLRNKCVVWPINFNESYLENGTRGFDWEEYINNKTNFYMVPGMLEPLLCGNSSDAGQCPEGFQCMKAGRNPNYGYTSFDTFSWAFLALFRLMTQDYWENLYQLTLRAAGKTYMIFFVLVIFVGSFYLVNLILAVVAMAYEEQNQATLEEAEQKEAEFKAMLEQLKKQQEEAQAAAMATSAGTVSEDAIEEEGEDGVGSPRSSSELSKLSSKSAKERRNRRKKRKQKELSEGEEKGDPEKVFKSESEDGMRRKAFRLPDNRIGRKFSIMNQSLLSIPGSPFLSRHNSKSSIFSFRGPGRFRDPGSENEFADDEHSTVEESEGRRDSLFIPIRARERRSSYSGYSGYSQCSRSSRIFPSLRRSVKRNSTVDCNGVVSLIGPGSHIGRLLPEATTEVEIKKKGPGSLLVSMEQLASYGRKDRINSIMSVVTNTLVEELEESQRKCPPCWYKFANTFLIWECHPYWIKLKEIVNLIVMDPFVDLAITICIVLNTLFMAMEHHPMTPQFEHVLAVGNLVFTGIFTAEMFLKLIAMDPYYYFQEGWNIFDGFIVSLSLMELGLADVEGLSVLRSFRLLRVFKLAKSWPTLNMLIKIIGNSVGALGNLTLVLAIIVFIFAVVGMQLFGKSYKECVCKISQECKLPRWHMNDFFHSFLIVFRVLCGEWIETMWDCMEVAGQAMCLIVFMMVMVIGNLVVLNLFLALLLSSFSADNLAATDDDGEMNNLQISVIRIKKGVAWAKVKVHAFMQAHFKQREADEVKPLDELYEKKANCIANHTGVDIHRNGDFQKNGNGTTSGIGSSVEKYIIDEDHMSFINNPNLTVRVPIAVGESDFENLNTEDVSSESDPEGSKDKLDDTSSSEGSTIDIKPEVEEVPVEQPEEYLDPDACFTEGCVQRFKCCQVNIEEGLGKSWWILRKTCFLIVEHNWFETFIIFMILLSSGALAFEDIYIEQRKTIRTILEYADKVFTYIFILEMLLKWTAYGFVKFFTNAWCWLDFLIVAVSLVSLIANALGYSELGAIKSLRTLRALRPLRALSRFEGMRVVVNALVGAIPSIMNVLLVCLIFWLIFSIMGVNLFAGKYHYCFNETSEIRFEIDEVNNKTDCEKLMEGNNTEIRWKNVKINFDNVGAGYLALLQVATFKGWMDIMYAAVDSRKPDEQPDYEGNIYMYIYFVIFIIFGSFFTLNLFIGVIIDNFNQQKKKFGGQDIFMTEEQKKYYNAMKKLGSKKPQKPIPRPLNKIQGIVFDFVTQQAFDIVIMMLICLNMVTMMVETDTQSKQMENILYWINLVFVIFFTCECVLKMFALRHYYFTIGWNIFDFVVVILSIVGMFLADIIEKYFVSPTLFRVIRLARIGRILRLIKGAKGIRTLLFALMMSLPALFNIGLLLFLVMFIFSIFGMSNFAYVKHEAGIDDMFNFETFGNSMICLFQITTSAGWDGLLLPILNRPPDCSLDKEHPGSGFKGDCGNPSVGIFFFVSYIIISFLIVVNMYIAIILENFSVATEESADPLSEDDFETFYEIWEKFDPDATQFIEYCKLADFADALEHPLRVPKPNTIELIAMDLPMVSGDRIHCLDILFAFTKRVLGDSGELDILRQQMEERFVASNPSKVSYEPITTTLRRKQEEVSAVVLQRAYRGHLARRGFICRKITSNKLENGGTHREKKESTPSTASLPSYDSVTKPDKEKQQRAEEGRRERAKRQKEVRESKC

Take JZTx-27 (peptide): the IC50 of inhibition of the current, whole-cell patch clamp, dose–response curve in test [1] was determined as 117 nM; in [2], 46.7 nM.
In the case of “JZTx-14 (from UniProt B1P1C0 30-62) (peptide)”, the IC50 of inhibition of the peak current, whole-cell patch clamp, dose–response curve with NaV1.5 is 478 nM; with NaV1.4, 290 nM; with NaV1.6, 159 nM; with NaV1.7, 189 nM; with NaV1.8/1.7L5 channel it was 824 nM; with NaV1.3, 426 nM. This substance came in with an IC50 of inhibition of the peak current, whole-cell patch clamp, dose–response curve with NaV1.2 of 194 nM. Further, the IC50 of inhibition of the current, whole-cell patch clamp, dose–response curve in test [1] was 3470 nM; in test [3] it was 653 nM; in [4] it was 1370 nM; in [5], 810 nM; in test [6], 833 nM; in test [7] it was 320 nM.
